The record followed here is paper PMC3958483, “Fine Specificity and Molecular Competition in SLAM Family Receptor Signalling” (PLoS ONE, 2014).

Assay in all cases: SPR; biotinylated phosphopeptides immobilised on streptavidin chip (about 25 RU single, 50 RU tandem motifs); soluble recombinant protein injected; 37°C; HBS-EP; equilibrium binding (Table 4; same-day purification not given)
Assay [1] has as its target CD244 ITSM4 phosphopeptide (human).
In assay [2] the target is CD244 ITSM2 phosphopeptide (human).
Assay [3] concerns the target CD244 ITSM3 phosphopeptide (human).

Sequence of SAP (recombinant full-length human SAP) (O60880 whole entry): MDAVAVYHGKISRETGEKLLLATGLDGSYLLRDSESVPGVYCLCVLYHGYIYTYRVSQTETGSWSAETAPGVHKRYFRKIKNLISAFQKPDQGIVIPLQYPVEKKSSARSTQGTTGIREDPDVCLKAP

With “SAP (recombinant full-length human SAP) (from UniProt O60880 1-128) (natural protein)”, the results for the Kd in assay [1], in assay [2] and in assay [3] were 1.9 µM, 0.02 µM and 0.08 µM, respectively.
